How the values were obtained:
[1] = mouse, in vivo
Protocol: At two hours post injection, agent is in the blood and interstitium. By 24 hours post injection, tumors are becoming apparent as agent is being cleared. At 48 hours, labeling is highly tumor selective. […] By surface fluorescence, as with SPECT, labeling is highly tumor selective at 48 hours. Biodistribution as organ radioactivity concentrations FIG. 26(c) and total organ radioactivity FIG. 26(d) were obtained by dissection and ^111In counting at 24 hours and 48 hours post injection. Even at 48 hours post injection some 7.5% of injected dose is in the blood, with less than 5% in liver, even though the diameter of PN(783)10.0 exceeds that of albumin (6.7 nm). Data are means and standard deviations. […] By 72 hours, some 17% of injected dose was retained, approximately half of which was still in the blood based on FIG. 26d.

HT-29 tumor = type: in vivo, mouse
Description: (§1) A Kodak FX multispectral imaging system was used (Carestream Molecular Imaging, Rochester, N.Y.). Excitation at multiple wavelengths (620, 650, 690, 710, 720, 730, 750 and 760 nm) with the emission at 830 nm was setup for IR-783 spectrum; Excitation at multiple wavelengths (420, 440, 460, 480, 510, 520, 530, and 540 nm) with the emission at 600 nm was setup for Cy3 spectrum; Excitation at multiple wavelengths (450, 470, 510, 520, 530, 540, 550, 570, and 590 nm) with the emission at 700 nm was setup for mCherry; with manufacturer's software to separate (unmix) the IR-783 spectrum, Cy3 spectrum, or mCherry spectrum from skin autofluorescence and chlorophyll fluorescence from food. X-ray images were taken after fluorescence images. Animals were anesthetized with 2% isoflurane with O2 flow (2 I/min) during imaging.
Female nude mice (25-30 g; 6-8 weeks old; nu/nu) were anesthetized with 2% isoflurane/O2. HT-29 or mCherry-HT-29 cells were detached, pelleted and 200 μl of cell suspension containing 10^6 cells in Matrigel (BD Bioscience) was injected subcutaneously into right and left shoulders. Tumors were allowed to grow 5-7 days before experiments.
The imaging was performed by Triumph II multimodality imaging system (Gamma Medica Ideas, LLC) comprising XSPECT with four CZT (Cadmium Zink Telluride) detectors and X-O CT with CMOS detector. SPECT data of the ^111In-labeled compound was acquired for 60 minutes using 5-pinhole collimators and processed with 3D-OSEM algorithm using 4 subsets and 5 iterations. 3-dimensional CT data was processed with modified Feldkamp software. […] Animals were under isoflurane anesthesia (1.5%) with O2 flow (1.5 l/min) and kept warm during the imaging with a heated animal bed.
150 μl of ^111In-labeled PN(783)10 (400 μCi, ˜2 nmole) were injected to tumor-bearing animals by tail vein (IV). 24 hours or 48 hours later, animals were sacrificed, and tumors, blood, liver, spleen, stomach, kidneys, small intestine, lung, heart, tail, fat, and muscle, were collected. Radioactivity was measured with Perkin Elmer, Wizard2 2480 gamma counter.

[2] = test system: HT-29, a human colon carcinoma cell line; assay: PN and peptide binding to cells (non-specific binding, FACS); type: cell-based; details: HT-29 cells, 30 min at 37° C., FACS
In short: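 Cells seeded at 5×10^5 cells/well the day before, then rinsed and incubated 30 min at 37 °C in 2% FBS/DPBS (+Ca, +Mg) with nanoprobes (added as a 2 μM solution; concentration set spectrophotometrically via dye extinction coefficients). After trypsin/EDTA detachment, cell-associated fluorescence was read by FACS.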

[3] = Whole animal surface fluorescence after IV injection (elimination); type: in vivo, mouse; details: bladder at 20 minutes, vs (DOTA)Lys-Cys(IR-783) peptide
Description: as §1

[4] = Blood half-life from serum fluorescence after tail injection; type: in vivo; details: mouse, IV; single decay constant fit
Protocol: Using these procedures and PEG's of different molecular weights, PEG-like NIR fluorochromes of different molecular weights, volumes and pharmacokinetics were synthesized, with results summarized in Table 3B. Blood half-lives were determined by tail injection into mice and measuring serum fluorescence as a function of time. Data (fluorescence versus time) were fit to a single decay constant equation to yield blood half-lives. Human pharmacokinetics will be far slower than that of mice.

Substance	injected dose retained (whole animal) [1] [%]	tumor retention (EPR) by SPECT and surface fluorescence (HT-29 tumor; HT29 tumor, 48 hours)	injected dose in the blood (HT-29 tumor; mouse, in vivo) [%]	injected dose in the liver (HT-29 tumor; mouse, in vivo)	Cell NSB (percent of cells with fluorescence higher than unstained cell) [2] [%]	fluorochrome elimination after IV injection [3]	Serum half-life [4] [min]
(DOTA)Lys(PEG30K)-Cys(IR-783) [PN(783)10.0]	~17	retained in the tumor	~7.5	less than 5%	18		
(DOTA)Lys(PEG5K)-Cys(IR-783) [PN(783)4.3]					20	enhanced fluorochrome elimination	13.1

From patent US20150258217A1, “Methods of Synthesizing and Using Peg-Like Fluorochromes” (THE GENERAL HOSPITAL CORPORATION, priority 2012, published 2015)
